Patent US20040082512A1

Target: ZOT receptor of rabbit ileum
Test: cell-based or functional assay

Substance: FZI/0, synthetic octapeptide Gly Gly Val Leu Val Gln Pro Gly
- decrease of the effect of ZOT (6xHis-ZOT) on Rt of rabbit ileum after 20 min pre-treatment with FZI/0: 75%
- decrease of the effect of zonulinh on Rt of rabbit ileum after 20 min pre-treatment with FZI/0: 100%
- decrease of the effect of zonulini on Rt of rabbit ileum after 20 min pre-treatment with FZI/0: 97%
